{"source": "paper PMC3210151", "about": "(2011)", "key": {"[1]": {"molecular_target": "RON constructs", "assay": "SPR; dimeric MSPβ R689C on RON constructs; method and conditions not told in the sentence (SPR is the paper's only binding method)"}, "[2]": {"molecular_target": "RON Sema-PSI (Glu25-Pro568) (human) (UniProt Q04912)", "assay": "SPR; same sensorgrams as the kinetic analysis (RON constructs amine-coupled to CM5, MSPβ as analyte, 10 mM Na-HEPES pH 8.0, 150 mM NaCl, 0.005% P20, 25°C); Kd from an equilibrium model"}, "[3]": {"molecular_target": "RON Sema (Glu25-Gly524) (human) (UniProt Q04912)", "assay": "SPR; same sensorgrams as the kinetic analysis (RON constructs amine-coupled to CM5, MSPβ as analyte, 10 mM Na-HEPES pH 8.0, 150 mM NaCl, 0.005% P20, 25°C); Kd from an equilibrium model"}, "[4]": {"molecular_target": "RON Sema-PSI-IPT1–4 (Glu25-Ser956) (human) (UniProt Q04912)", "assay": "SPR; same sensorgrams as the kinetic analysis (RON constructs amine-coupled to CM5, MSPβ as analyte, 10 mM Na-HEPES pH 8.0, 150 mM NaCl, 0.005% P20, 25°C); Kd from an equilibrium model"}, "[5]": {"molecular_target": "RON Sema-PSI-IPT1 (Glu25-Glu683) (human) (UniProt Q04912)", "assay": "SPR; same sensorgrams as the kinetic analysis (RON constructs amine-coupled to CM5, MSPβ as analyte, 10 mM Na-HEPES pH 8.0, 150 mM NaCl, 0.005% P20, 25°C); Kd from an equilibrium model"}, "[6]": {"molecular_target": "RON Sema-PSI (Glu25-Pro568) (human) (UniProt Q04912)", "assay": "SPR; Biacore T100; RON constructs amine-coupled to a CM5 chip; MSPβ as analyte (wild type 5-500 nM, R689C 32-2000 nM); 10 mM Na-HEPES pH 8.0, 150 mM NaCl, 0.005% P20, 25°C; global fit to a 1:1 Langmuir kinetic model"}, "[7]": {"molecular_target": "RON Sema (Glu25-Gly524) (human) (UniProt Q04912)", "assay": "SPR; Biacore T100; RON constructs amine-coupled to a CM5 chip; MSPβ as analyte (wild type 5-500 nM, R689C 32-2000 nM); 10 mM Na-HEPES pH 8.0, 150 mM NaCl, 0.005% P20, 25°C; global fit to a 1:1 Langmuir kinetic model"}, "[8]": {"molecular_target": "RON Sema-PSI-IPT1–4 (Glu25-Ser956) (human) (UniProt Q04912)", "assay": "SPR; Biacore T100; RON constructs amine-coupled to a CM5 chip; MSPβ as analyte (wild type 5-500 nM, R689C 32-2000 nM); 10 mM Na-HEPES pH 8.0, 150 mM NaCl, 0.005% P20, 25°C; global fit to a 1:1 Langmuir kinetic model"}, "[9]": {"molecular_target": "RON Sema-PSI-IPT1 (Glu25-Glu683) (human) (UniProt Q04912)", "assay": "SPR; Biacore T100; RON constructs amine-coupled to a CM5 chip; MSPβ as analyte (wild type 5-500 nM, R689C 32-2000 nM); 10 mM Na-HEPES pH 8.0, 150 mM NaCl, 0.005% P20, 25°C; global fit to a 1:1 Langmuir kinetic model"}, "[10]": {"molecular_target": "wild type MSPβ (macrophage stimulating protein β-chain with the adjoining 19 residues of the α-chain, … (human, UniProt P26927 465-711, C672S))", "assay": "SPR; solution competition"}, "[11]": {"molecular_target": "MSPβ R689C (Phe465-Gly711, C672S, R689C) (human, UniProt P26927 465-711, C672S | R689C)", "assay": "SPR; solution competition"}}}
{"molecule": "dimeric MSPβ R689C (from UniProt P26927 465-711) (complex)", "values": [{"measurement": "Kd", "setting": "[1]", "value": "3.7 to 4.9", "unit": "nM"}]}
{"molecule": "MSPβ R689C (Phe465-Gly711, C672S, R689C) (from UniProt P26927 465-711) (domain or fragment)", "values": [{"measurement": "Kd", "setting": "[2]", "value": 244, "unit": "nM"}, {"measurement": "Kd", "setting": "[3]", "value": 139, "unit": "nM"}, {"measurement": "Kd", "setting": "[4]", "value": 158, "unit": "nM"}, {"measurement": "Kd", "setting": "[5]", "value": 154, "unit": "nM"}, {"measurement": "Kd", "setting": "[6]", "value": 233, "unit": "nM"}, {"measurement": "koff", "setting": "[6]", "value": 0.062, "unit": "s⁻¹"}, {"measurement": "kon", "setting": "[6]", "value": 270000, "unit": "M⁻¹ s⁻¹"}, {"measurement": "Kd", "setting": "[7]", "value": 170, "unit": "nM"}, {"measurement": "koff", "setting": "[7]", "value": 0.081, "unit": "s⁻¹"}, {"measurement": "kon", "setting": "[7]", "value": 480000, "unit": "M⁻¹ s⁻¹"}, {"measurement": "Kd", "setting": "[8]", "value": 157, "unit": "nM"}, {"measurement": "koff", "setting": "[8]", "value": 0.055, "unit": "s⁻¹"}, {"measurement": "kon", "setting": "[8]", "value": 350000, "unit": "M⁻¹ s⁻¹"}, {"measurement": "Kd", "setting": "[9]", "value": 148, "unit": "nM"}, {"measurement": "koff", "setting": "[9]", "value": 0.129, "unit": "s⁻¹"}, {"measurement": "kon", "setting": "[9]", "value": 870000, "unit": "M⁻¹ s⁻¹"}]}
{"molecule": "wild type MSPβ (macrophage stimulating protein β-chain with the adjoining 19 residues of the α-chain, Phe465-Gly711, C672S) (from UniProt P26927 465-711) (domain or fragment)", "values": [{"measurement": "Kd", "setting": "[2]", "value": 32, "unit": "nM"}, {"measurement": "Kd", "setting": "[3]", "value": 16.4, "unit": "nM"}, {"measurement": "Kd", "setting": "[4]", "value": 22.6, "unit": "nM"}, {"measurement": "Kd", "setting": "[5]", "value": 17.8, "unit": "nM"}, {"measurement": "Kd", "setting": "[6]", "value": 21.2, "unit": "nM"}, {"measurement": "koff", "setting": "[6]", "value": 0.028, "unit": "s⁻¹"}, {"measurement": "kon", "setting": "[6]", "value": "1.33e+06", "unit": "M⁻¹ s⁻¹"}, {"measurement": "Kd", "setting": "[7]", "value": 13.3, "unit": "nM"}, {"measurement": "koff", "setting": "[7]", "value": 0.031, "unit": "s⁻¹"}, {"measurement": "kon", "setting": "[7]", "value": "2.31e+06", "unit": "M⁻¹ s⁻¹"}, {"measurement": "Kd", "setting": "[8]", "value": 13.5, "unit": "nM"}, {"measurement": "koff", "setting": "[8]", "value": 0.023, "unit": "s⁻¹"}, {"measurement": "kon", "setting": "[8]", "value": "1.69e+06", "unit": "M⁻¹ s⁻¹"}, {"measurement": "Kd", "setting": "[9]", "value": 15.1, "unit": "nM"}, {"measurement": "koff", "setting": "[9]", "value": 0.027, "unit": "s⁻¹"}, {"measurement": "kon", "setting": "[9]", "value": "1.76e+06", "unit": "M⁻¹ s⁻¹"}]}
{"molecule": "RON Sema-PSI-IPT1–4 (Glu25-Ser956) (domain or fragment) EDWQCPRTPYAASRDFDVKYVVPSFSAGGLVQAMVTYEGDRNESAVFVAIRNRLHVLGPDLKSVQSLATGPAGDPGCQTCAACGPGPHGPPGDTDTKVLVLDPALPALVSCGSSLQGRCFLHDLEPQGTAVHLAAPACLFSAHHNRPDDCPDCVASPLGTRVTVVEQGQASYFYVASSLDAAVAASFSPRSVSIRRLKADASGFAPGFVALSVLPKHLVSYSIEYVHSFHTGAFVYFLTVQPASVTDDPSALHTRLARLSATEPELGDYRELVLDCRFAPKLVPRGSPEGGQPYPVLRVAHSAPVGAQLATELSIAEGQEVLFGVFVTGKDGGPGVGPNSVVCAFPIDLLDTLIDEGVERCCESPVHPGLRRGLDFFQSPSFCPNPPGLEALSPNTSCRHFPLLVSSSFSRVDLFNGLLGPVQVTALYVTRLDNVTVAHMGTMDGRILQVELVRSLNYLLYVSNFSLGDSGQPVQRDVSRLGDHLLFASGDQVFQVPIQGPGCRHFLTCGRCLRAWHFMGCGWCGNMCGQQKECPGSWQQDHCPPKLTEFHPHSGPLRGSTRLTLCGSNFYLHPSGLVPEGTHQVTVGQSPCRPLPKDSSKLRPVPRKDFVEEFECELEPLGTQAVGPTNVSLTVTNMPPGKHFRVDGTSVLRGFSFMEPVLIAVQPLFGPRAGGTCLTLEGQSLSVGTSRAVLVNGTECLLARVSEGQLLCATPPGATVASVPLSLQVGGAQVPGSWTFQYREDPVVLSISPNCGYINSHITICGQHLTSAWHLVLSFHDGLRAVESRCERQLPEQQLCRLPEYVVRDPQGWVAGNLSARGDGAAGFTLPGFRFLPPPHPPSANLVPLKPEEHAIKFEYIGLGAVADCVGINVTVGGESCQHEFRGDMVVCPLPPSLQLGQDGAPLQVCVDGECHILGRVVRPGPDGVPQS", "values": [{"measurement": "Kd", "setting": "[10]", "value": 52.8, "unit": "nM"}, {"measurement": "Kd", "setting": "[11]", "value": 381, "unit": "nM"}]}
{"molecule": "RON Sema (Glu25-Gly524) (domain or fragment) EDWQCPRTPYAASRDFDVKYVVPSFSAGGLVQAMVTYEGDRNESAVFVAIRNRLHVLGPDLKSVQSLATGPAGDPGCQTCAACGPGPHGPPGDTDTKVLVLDPALPALVSCGSSLQGRCFLHDLEPQGTAVHLAAPACLFSAHHNRPDDCPDCVASPLGTRVTVVEQGQASYFYVASSLDAAVAASFSPRSVSIRRLKADASGFAPGFVALSVLPKHLVSYSIEYVHSFHTGAFVYFLTVQPASVTDDPSALHTRLARLSATEPELGDYRELVLDCRFAPKLVPRGSPEGGQPYPVLRVAHSAPVGAQLATELSIAEGQEVLFGVFVTGKDGGPGVGPNSVVCAFPIDLLDTLIDEGVERCCESPVHPGLRRGLDFFQSPSFCPNPPGLEALSPNTSCRHFPLLVSSSFSRVDLFNGLLGPVQVTALYVTRLDNVTVAHMGTMDGRILQVELVRSLNYLLYVSNFSLGDSGQPVQRDVSRLGDHLLFASGDQVFQVPIQG", "values": [{"measurement": "Kd", "setting": "[10]", "value": 17.6, "unit": "nM"}]}
